# Tested on: Escherichia coli TOP10
# Assay: shrunken log2 fold change of peptide-encoding DNA abundance (4.5 h post-induction vs induction); higher = less antimicrobial activity (less host growth inhibition)
# Details: time post-induction: 4.5 h; library: site-saturation at positions 5, 18, 19, 20
# 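Also: peptides expressed intracellularly from a pBAD plasmid library in pooled LB shake-flask culture, induced with 0.3% L-arabinose, DNA abundance read by NGS, three biological replicates, DESeq2 with apeglm shrinkage.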
row,Sequence,shrunken log2 fold change
1,RRIRNRPPRLPRPRPRPAFVPRP,0.154
2,RRIRCRPPRLPRPRPRPYIDPRP,-1.39
3,RRIRSRPPRLPRPRPRPEPQPRP,0.397
4,RRIRIRPPRLPRPRPRPVSGPRP,0.0231
5,RRIRSRPPRLPRPRPRPRTWPRP,0.0747
6,RRIRWRPPRLPRPRPRPYTMPRP,-0.335
7,RRIRMRPPRLPRPRPRPLCIPRP,0.21
8,RRIRDRPPRLPRPRPRPNKHPRP,-0.425
9,RRIRCRPPRLPRPRPRPGQEPRP,0.094
10,RRIRRRPPRLPRPRPRPALPPRP,0.48
11,RRIRFRPPRLPRPRPRPRITPRP,-0.657
12,RRIRNRPPRLPRPRPRPFKSPRP,-0.014
13,RRIRERPPRLPRPRPRPSCSPRP,-0.412
14,RRIRTRPPRLPRPRPRPDPLPRP,-0.145
15,RRIRDRPPRLPRPRPRPSYYPRP,-0.0757
16,RRIRHRPPRLPRPRPRPFTDPRP,-0.1
17,RRIRGRPPRLPRPRPRPSQAPRP,0.612
18,RRIRMRPPRLPRPRPRPTVRPRP,0.216
19,RRIRRRPPRLPRPRPRPKFVPRP,-0.151
20,RRIRFRPPRLPRPRPRPMNAPRP,-0.054
21,RRIRIRPPRLPRPRPRPMSMPRP,-0.281
22,RRIRFRPPRLPRPRPRPTDQPRP,-0.0655
23,RRIRHRPPRLPRPRPRPSEFPRP,-0.477
24,RRIRLRPPRLPRPRPRPIIHPRP,-0.186
25,RRIRTRPPRLPRPRPRPMALPRP,-0.0542

row,Sequence,shrunken log2 fold change
1,RRIRKRPPRLPRPRPRPAYGPRP,0.397
2,RRIRWRPPRLPRPRPRPNVDPRP,-0.0535
3,RRIRKRPPRLPRPRPRPEACPRP,0.0762
4,RRIRLRPPRLPRPRPRPLGMPRP,0.0609
5,RRIRHRPPRLPRPRPRPMTAPRP,-0.135
6,RRIRPRPPRLPRPRPRPAPEPRP,0.346
7,RRIRLRPPRLPRPRPRPMHFPRP,0.108
8,RRIRVRPPRLPRPRPRPGRLPRP,-0.0194
9,RRIRYRPPRLPRPRPRPAIDPRP,-0.0997
10,RRIRCRPPRLPRPRPRPWVMPRP,-0.221
11,RRIRERPPRLPRPRPRPRDWPRP,0.311
12,RRIRCRPPRLPRPRPRPQWDPRP,-0.0642
13,RRIRFRPPRLPRPRPRPDCKPRP,0.154
14,RRIRFRPPRLPRPRPRPTCAPRP,0.564
15,RRIRRRPPRLPRPRPRPGEFPRP,-0.0272
16,RRIRHRPPRLPRPRPRPTGKPRP,-0.00448
17,RRIRKRPPRLPRPRPRPNHGPRP,-0.0607
18,RRIRFRPPRLPRPRPRPQGSPRP,-0.0076
19,RRIRCRPPRLPRPRPRPFEFPRP,0.0705
20,RRIRSRPPRLPRPRPRPGWVPRP,0.549
21,RRIRYRPPRLPRPRPRPRITPRP,-0.382
22,RRIRDRPPRLPRPRPRPKAFPRP,-0.00149
23,RRIRIRPPRLPRPRPRPCACPRP,-0.889
24,RRIRIRPPRLPRPRPRPEGIPRP,-0.0831
25,RRIRTRPPRLPRPRPRPFLGPRP,-0.0873

row,Sequence,shrunken log2 fold change
1,RRIRRRPPRLPRPRPRPHIYPRP,-0.0628
2,RRIRPRPPRLPRPRPRPVESPRP,-0.0537
3,RRIRYRPPRLPRPRPRPCKPPRP,-0.00151
4,RRIRWRPPRLPRPRPRPAMVPRP,0.483
5,RRIRVRPPRLPRPRPRPYVNPRP,0.0651
6,RRIRTRPPRLPRPRPRPAPQPRP,0.0544
7,RRIRIRPPRLPRPRPRPQGHPRP,-0.0464
8,RRIRTRPPRLPRPRPRPTQCPRP,0.227
9,RRIRKRPPRLPRPRPRPLFNPRP,0.0323
10,RRIRSRPPRLPRPRPRPRFQPRP,0.233
11,RRIRFRPPRLPRPRPRPMENPRP,-0.0803
12,RRIRDRPPRLPRPRPRPDPCPRP,-0.0187
13,RRIRMRPPRLPRPRPRPLDQPRP,1.12
14,RRIRQRPPRLPRPRPRPVDWPRP,0.39
15,RRIRMRPPRLPRPRPRPACTPRP,0.623
16,RRIRVRPPRLPRPRPRPFNFPRP,-1.01
17,RRIRRRPPRLPRPRPRPQILPRP,0.0332
18,RRIRLRPPRLPRPRPRPIGFPRP,0.0709
19,RRIRPRPPRLPRPRPRPVHLPRP,0.179
20,RRIRLRPPRLPRPRPRPMCRPRP,-0.0985
21,RRIRHRPPRLPRPRPRPPWAPRP,0.226
22,RRIRRRPPRLPRPRPRPSATPRP,0.756
23,RRIRPRPPRLPRPRPRPGTGPRP,-0.0651
24,RRIRSRPPRLPRPRPRPKKCPRP,-0.0782
25,RRIRLRPPRLPRPRPRPWLDPRP,-0.233

row,Sequence,shrunken log2 fold change
1,RRIRKRPPRLPRPRPRPKRGPRP,0.781
2,RRIRYRPPRLPRPRPRPEGIPRP,-0.0155
3,RRIRSRPPRLPRPRPRPDVNPRP,0.0672
4,RRIRKRPPRLPRPRPRPSITPRP,0.846
5,RRIRLRPPRLPRPRPRPLWCPRP,0.159
6,RRIRMRPPRLPRPRPRPWEDPRP,-0.0122
7,RRIRNRPPRLPRPRPRPFPRPRP,0.0857
8,RRIRKRPPRLPRPRPRPQWKPRP,0.17
9,RRIRNRPPRLPRPRPRPCPYPRP,-0.0128
10,RRIRLRPPRLPRPRPRPEYMPRP,-0.741
11,RRIRPRPPRLPRPRPRPDCFPRP,0.112
12,RRIRNRPPRLPRPRPRPNAAPRP,-0.149
13,RRIRFRPPRLPRPRPRPYRTPRP,-0.165
14,RRIRKRPPRLPRPRPRPPFRPRP,0.566
15,RRIRMRPPRLPRPRPRPSSFPRP,-0.0557
16,RRIRCRPPRLPRPRPRPHWIPRP,-0.761
17,RRIRDRPPRLPRPRPRPGMYPRP,-0.00172
18,RRIRHRPPRLPRPRPRPHHVPRP,-0.35
19,RRIRQRPPRLPRPRPRPNYSPRP,-0.397
20,RRIRERPPRLPRPRPRPRTEPRP,-0.0166
21,RRIRKRPPRLPRPRPRPPETPRP,0.651
22,RRIRGRPPRLPRPRPRPQVRPRP,0.713
23,RRIRERPPRLPRPRPRPWFVPRP,-0.463
24,RRIRVRPPRLPRPRPRPSQKPRP,-0.0127
25,RRIRGRPPRLPRPRPRPFESPRP,0.0306

row,Sequence,shrunken log2 fold change
1,RRIRKRPPRLPRPRPRPEESPRP,0.0563
2,RRIRLRPPRLPRPRPRPLDKPRP,-0.122
3,RRIRMRPPRLPRPRPRPMFEPRP,0.155
4,RRIRWRPPRLPRPRPRPHSAPRP,-0.0726
5,RRIRARPPRLPRPRPRPVKCPRP,0.03
6,RRIRSRPPRLPRPRPRPLPWPRP,0.21
7,RRIRVRPPRLPRPRPRPSRSPRP,0.0405
8,RRIRLRPPRLPRPRPRPQECPRP,-0.00874
9,RRIRLRPPRLPRPRPRPSAEPRP,0.342
10,RRIRQRPPRLPRPRPRPMSIPRP,-0.00929
11,RRIRCRPPRLPRPRPRPTVVPRP,-0.127
12,RRIRLRPPRLPRPRPRPEVTPRP,-0.046
13,RRIRVRPPRLPRPRPRPWLYPRP,-0.157
14,RRIRARPPRLPRPRPRPAFCPRP,0.645
15,RRIRLRPPRLPRPRPRPSPSPRP,-0.218
16,RRIRSRPPRLPRPRPRPCMNPRP,-0.206
17,RRIRRRPPRLPRPRPRPDKSPRP,0.00757
18,RRIRERPPRLPRPRPRPYFPPRP,-0.307
19,RRIRCRPPRLPRPRPRPMSEPRP,-0.0508
20,RRIRARPPRLPRPRPRPCYAPRP,-0.26
21,RRIRMRPPRLPRPRPRPCDIPRP,-0.151
22,RRIRCRPPRLPRPRPRPHVCPRP,0.0221
23,RRIRYRPPRLPRPRPRPDDHPRP,-0.264
24,RRIRKRPPRLPRPRPRPHKSPRP,0.0371
25,RRIRRRPPRLPRPRPRPEGLPRP,2.59
